T1: yeast NMT (Saccharomyces cerevisiae, UniProt P14743)
T1 construct: 11,000-fold purified preparation of yeast NMT; from tissue; host or cells: yeast
T1 sequence (P14743 1-455): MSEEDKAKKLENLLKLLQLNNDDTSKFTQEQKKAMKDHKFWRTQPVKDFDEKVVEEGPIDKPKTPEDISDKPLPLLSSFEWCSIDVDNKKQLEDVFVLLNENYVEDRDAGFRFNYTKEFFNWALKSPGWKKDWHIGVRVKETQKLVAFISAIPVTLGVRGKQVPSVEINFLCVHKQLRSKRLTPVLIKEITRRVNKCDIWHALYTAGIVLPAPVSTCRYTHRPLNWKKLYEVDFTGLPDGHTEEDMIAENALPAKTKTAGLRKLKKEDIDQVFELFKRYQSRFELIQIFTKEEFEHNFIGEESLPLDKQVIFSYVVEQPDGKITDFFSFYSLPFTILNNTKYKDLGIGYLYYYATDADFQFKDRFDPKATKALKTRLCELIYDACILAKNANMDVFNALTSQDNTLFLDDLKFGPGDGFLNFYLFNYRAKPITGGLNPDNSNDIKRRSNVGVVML

B1: yeast NMT (Saccharomyces cerevisiae S288C) (protein)
chain: T1 sequence (P14743 1-455)
notes: 11,000-fold purified preparation of yeast NMT; from tissue; host or cells: yeast

Key:
[1] = tested on: Saccharomyces cerevisiae strain BJ405; assay: toxicity / growth rate of yeast cells; type: cell-based
Protocol: (§1) Saccharomyces cerevisiae strain BJ405 [MATα, trpl, prbl, prcl, pep4-3; Hemmings et al., Proc. Natl. Acad. Sci. USA 78, 435-439 (1981)] (previously referred to as JR153) was grown to mid-log phase (OD660nm=1.0-1.2) in YPD medium (1% yeast extract/2% Bactopeptone/2% Dextrose) at 30° C. in a rotary shaker water bath. Cells were pretreated with Cerulenin at 2 μg/ml for 15 minutes and then incubated for 20-45 minutes with unlabeled myristate, palmitate or fatty acid analog at 100 μM in the presence of either 5 μM [9,10-^3 H(N)]-myristate (22.4 Ci/mmol) or L-[^35 S]methionine (1106 Ci/mmol) at 30 μCi/ml of culture.
Furthermore, 100 μM myristate and 100 μM analog produced a similar modest reduction (10-15%) in total protein synthesis (measured by the incorporation of [^35 S]methionine into TCA precipitable protein) compared to control cells which were not exposed to exogenous fatty acid.

[2] = tested on: known yeast myristoylprotein of Mr 20 kDa; assay: competition for incorporation of [3H]myristate into a yeast myristoylprotein; type: cell-based, Saccharomyces cerevisiae strain BJ405; details: in words
Protocol: as §1
Cells were cooled on ice 5 minutes, pelleted at 10,000×g, then broken and extracted by the method of Towler et al., Proc. Natl. Acad. Sci. USA 83, 2812-2816 (1986). Total protein synthesis was assayed by trichloroacetic acid (TCA) precipitation. Proteins were separated by SDS-12% polyacrylamide gel electrophoresis, and [^3 H]fatty acid incorporation into cellular acyl-proteins was assayed by autoradiography followed by laser densitometry.

[3] = 2-octanol/water partition; type: physicochemical
Protocol: For these Examples, each analog synthesized is characterized by ^1 H and 13C NMR as well as mass spectroscopy. The analogs are then characterized kinetically as NMT substrates. Briefly, fatty acid analogs are converted to their CoA esters with Pseudomonas CoA ligase and incubated with the iodinated peptide GNAAS[^125 I]YRR and a source of NMT. […] The radiolabelled peptide is then used at concentrations which will lead to 50% enzyme saturation (i.e., at its Km) for the determination of fatty acid analog kinetic characteristics. Representative analogs with sulfur or oxygen in the backbone of the fatty acid chain serve as good substrates for NMT in vitro and will compete for incorporation of ^3 H labelled myri-state into yeast proteins in vivo. In addition, these analogs differ markedly in hydrophobicity from myri-state as measured both by C18 reverse phase HPLC elution profiles and by 2-octanol/water partition coefficients. The analog CH3 O (CH2)11 COOH, for example, partitions into water 20 fold better than myristate. It is believed that these analogs will be incorporated into mammalian acylproteins in vivo and that their incorporation into these proteins will drastically alter protein processing or targeting. […]

yeast NMT = molecular target: T1, yeast NMT; assay: in vitro yeast NMT assay, kinetics of fatty acid analog substrates with iodinated peptide GNAAS[125I]YRR; type: biochemical; details: Table 2; relative to myristate control 100%; peptide at its Km
Text: (§2) Similar results were obtained using an 11,000-fold purified preparation of yeast NMT [Towler et al., Proc. Natl. Acad. Sci. USA 84, 2708-2712 (1987)].
(§3) Other illustrative examples of the oxy- and thio-substituted fatty acid analog substrate compounds of the invention were synthesized in Examples 6 to 14 and tested in Example 15 as substrates for the yeast NMT.
(§4) For these Examples, each analog synthesized is characterized by ^1 H and 13C NMR as well as mass spectroscopy. The analogs are then characterized kinetically as NMT substrates. Briefly, fatty acid analogs are converted to their CoA esters with Pseudomonas CoA ligase and incubated with the iodinated peptide GNAAS[^125 I]YRR and a source of NMT. […] The radiolabelled peptide is then used at concentrations which will lead to 50% enzyme saturation (i.e., at its Km) for the determination of fatty acid analog kinetic characteristics. Representative analogs with sulfur or oxygen in the backbone of the fatty acid chain serve as good substrates for NMT in vitro and will compete for incorporation of ^3 H labelled myri-state into yeast proteins in vivo. In addition, these analogs differ markedly in hydrophobicity from myri-state as measured both by C18 reverse phase HPLC elution profiles and by 2-octanol/water partition coefficients. The analog CH3 O (CH2)11 COOH, for example, partitions into water 20 fold better than myristate. It is believed that these analogs will be incorporated into mammalian acylproteins in vivo and that their incorporation into these proteins will drastically alter protein processing or targeting. It is further believed that the incorporation of fatty acid analogs of both myristate and palmitate into ester linked and phosphatidyl inositol glycan linked acylproteins will also dramatically alter their properties. Since many viral proteins and oncogenes are acylated, these compounds represent a new class of potential antiviral and antineoplastic agents.

[4] = substrate: CCSCCCCCCCCCCC(=O)O; assay: as above; type: biochemical; details: other: Table 2; peptide at its Km
Text: as §2, §3, §4

[5] = substrate: CCCCCCCCSCCCCC(=O)O; assay: as above; type: biochemical; details: other: Table 2; peptide at its Km
Text: as §2, §3, §4

[6] = substrate: COCCCCCCCCCCCC(=O)O; assay: as above; type: biochemical; details: other: Table 2; peptide at its Km
Text: as §2, §3, §4

[7] = substrate: CCCCOCCCCCCCCCCC(=O)O; assay: as above; type: biochemical; details: other: Table 2; peptide at its Km
Text: as §2, §3, §4

[8] = substrate: CCOCCCCCCCCCCC(=O)O; assay: as above; type: biochemical; details: other: Table 2; peptide at its Km
Text: as §2, §3, §4

[9] = substrate: CCCOCCCCCCCCCC(=O)O; assay: as above; type: biochemical; details: other: Table 2; peptide at its Km
Text: as §2, §3, §4

[10] = substrate: CCCCCCCCCCCCCC(=O)O; assay: as above; type: biochemical; details: other: Table 2; peptide at its Km
Text: as §2, §3, §4

[11] = substrate: CCCCCCCCOCCCCC(=O)O; assay: as above; type: biochemical; details: other: Table 2; peptide at its Km
Text: as §2, §3, §4

[12] = substrate: COCCCCCCCCCCC(=O)O; assay: as above; type: biochemical; details: other: Table 2; peptide at its Km
Text: as §2, §3, §4

[13] = substrate: C#CCOCCCCCCCCCC(=O)O; assay: as above; type: biochemical; details: other: Table 2; peptide at its Km
Text: as §2, §3, §4

[14] = substrate: CCCSCCCCCCCCCC(=O)O; assay: as above; type: biochemical; details: other: Table 2; peptide at its Km
Text: as §2, §3, §4

Molecule	growth rates of cells vs 100 μM myristate [1]	toxicity to cells ([1]; 100 μM)	entry into yeast / competition with labeled myristate for incorporation into yeast protein [2]	partition into water vs myristate [3] [fold]	Acyl CoA Vm (yeast NMT)	Km [4] [µM]	Km [5] [µM]	Km [6] [µM]	Km [7] [µM]	Km [8] [µM]	Km [9] [µM]	Km [10] [µM]	Km [11] [µM]	Km [12] [µM]	Km [13] [µM]	Km [14] [µM]
COCCCCCCCCCCCC(=O)O [CH3 O(CH2)11 COOH, 12-(Methoxy)dodecanoic acid]	No difference in the growth rates	does not appear to be toxic to cells	can successfully enter yeast and compete with labeled myristate for incorporation into a known myristoylprotein	20	~ 110%											
B1						1.4	1.5	2	1	1.8	6.1	0.6	1.6	6.9	6.5	1.5

Reference: patent US5871954A, “Fatty acid analog enzyme substrates” (Washington University, priority 1993, dated 1999)
